According to patent US20230398228A1, “ERIBULIN-BASED ANTIBODY-DRUG CONJUGATES AND METHODS OF USE” (EISAI R&D MANAGEMENT CO., LTD., priority 2016, published 2023):

Columns and labels:
[1] = DAR analysis by HIC-HPLC
Procedure: Samples were injected onto a TSKgel® Ether-5 PW, 7.5 mm ID×7.5 cm, 10 μM pore size, and eluted from the column with a 3 min equilibration in 100% of mobile phase A, a 15 min gradient (0-100% B), a 5 min hold in 100% B, a 1 min change to 100% A, and a 5 min re-equilibration in 100% of mobile phase A, at 0.7 mL/min. Mobile phase A was 25 mM sodium phosphate, 1.5 M ammonium sulfate, pH 7.0. Mobile phase B was 25 mM sodium phosphate, 25% isopropanol, pH 7.0. Detection was done at 280 nm (reference 320 nm). DAR was determined by the formula:
[AUC+1+2(AUC+2)+3(AUC+3)+ . . . n(AUC+n)]/ΣAUCtot]
where AUC+1 is the area under the curve for the mAb peak corresponding to ADC conjugated with one cytotoxin, AUC+2 is the area under the curve for the mAb peak corresponding to ADC conjugated with two cytotoxins, etc. ΣAUCtot is the combined area under the curve for all peaks.
DAR was analyzed using hydrophobic interaction HPLC (HIC-HPLC). Samples were injected onto a TSKgel® Butyl-NP5, 4.6 mm ID×3.5 cm, 2.5 μM nonporous size column (Tosoh Bioscience), and eluted with a 3 min equilibration in 100% of mobile phase A, a 15 min gradient (0-100% B), a 5 min hold in 100% B, a 1 min change to 100% A, and a 5 min re-equilibration in 100% of mobile phase A, at 0.7 mL/min. Mobile phase A was 25 mM sodium phosphate, 1.5 M ammonium sulfate, pH 7.0. […] DAR was determined by the formula: […]

[2] = test system: A431 cells; assay: Crystal Violet cytotoxicity assay (Example 4), A431 (parental); format: cell-based, human; settings: mean of replicate experiments, read-out: Cytotoxicity IC50 (nM), A431 (FR^neg, MSLN^neg)
[3] = biological target: human mesothelin (Homo sapiens, UniProt Q13421); assay: ELISA, mesothelin; format: binding; settings: MORAb-009 and its ADCs; for EC50: read-out: Antigen Binding ELISA, EC50
Procedure: Recombinant human mesothelin was diluted to 1 μg/mL in coating buffer (50 mM carbonate-bicarbonate buffer, pH 9.6), and coated onto 96-well Maxisorp black plates (Thermo, Cat No. 43711, 100 μL/well) at 4° C., overnight. Coating solution was discarded and the plates were washed three times using 1×PBS with 0.05% Tween-20 (PBST) buffer. Plates were blocked in 300 μL blocking buffer (1% BSA in PBST) at room temperature for 2 hours on an orbital shaker. […] Blocking buffer was discarded and 100 μL/well of diluted antibody was added to the plates. Plates were incubated at room temperature for 2 hours on an orbital shaker. Antibody solution was discarded and plates were washed three times using PBST. 100 μL/well of goat-anti-human IgG (H+L)-HRP (1:10,000 dilution in blocking buffer) solution was added to the plates, and plates were incubated at room temperature for 1 hour on an orbital shaker. Secondary antibody solution was discarded and plates were washed three times using PBST. 100 μL/well of QuantaBlu fluorogenic peroxidase substrate working solution (Thermo, Cat No. 15169) was added to the plates, and plates were incubated at room temperature for 30 min. Fluorescence was read at excitation 325 nm/emission 420 nm using a SpectraMax M5 (Molecular Devices). Data was analyzed using SoftMaxPro 5.4.2 software with 4-parameter fitting.

[4] = test system: ZR-75 cells; assay: Crystal Violet cytotoxicity assay (Example 4), ZR-75; format: cell-based, human
Procedure: Test reagents were serial diluted 1:3 in 2 mL deep-well dilution plates, starting at 200 nM (10 dilutions total). […] Medium was then discarded. […] Plates were read at 570 nm. Data was analyzed using GraphPad Prism 6.

Substance | DAR (HIC-HPLC) [1] | IC50 [2] [nM] | Antigen Binding ELISA, EC50 [3] [µg/mL] | EC50 [3] [nM] | cytotoxicity on ZR-75 cells, in words [4]
MORAb009-PEG2-eribulin | 4.30 | > 100 | 0.00884 | 0.06 | –
MORAb009-PEG4-eribulin | 4.57 | > 100 | 0.0116 | 0.08 | –
MORAb-003-maleimido-PEG2-Val-Cit-pAB-eribulin [MORAb-202] | – | – | – | – | little killing
